Each block holds one binder with its values, some of them ahead of it.
What was measured:
Test in all cases: holdup assay
Design in all cases: key: below the threshold = too weak to quantify, mostly under pKd 3.1 to 4
PDZRN3_1, Q9UPQ7 = target: T1, PDZRN3_1, Q9UPQ7
T1 sequence (Q9UPQ7 244-349, limits assumed, looked up): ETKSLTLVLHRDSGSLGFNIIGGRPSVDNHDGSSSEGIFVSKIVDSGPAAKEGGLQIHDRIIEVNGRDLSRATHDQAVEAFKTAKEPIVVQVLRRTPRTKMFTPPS

MAGI1_2, Q96QZ7 = target: MAGI1_2, Q96QZ7
IL16_1, Q14005 = target: IL16_1, Q14005
GRIP2_4, Q9C0E4 = target: GRIP2_4, Q9C0E4
NHERF3_1, Q5T2W1 = target: T2, NHERF3_1, Q5T2W1
T2 sequence (Q5T2W1 4-100, limits assumed, looked up): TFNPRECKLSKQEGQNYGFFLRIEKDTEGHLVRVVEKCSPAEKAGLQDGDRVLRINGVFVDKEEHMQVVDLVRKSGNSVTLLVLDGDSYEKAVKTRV

LIN7A, O14910 = target: T3, LIN7A, O14910
T3 sequence (O14910 103-200, limits assumed, looked up): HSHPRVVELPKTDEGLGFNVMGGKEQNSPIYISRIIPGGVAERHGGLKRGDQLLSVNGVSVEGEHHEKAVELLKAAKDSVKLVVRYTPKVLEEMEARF

PARD3_3, Q8TEW0 = target: PARD3_3, Q8TEW0
PCLO, Q9Y6V0 = target: T4, PCLO, Q9Y6V0
T4 sequence (Q9Y6V0 4491-4600, limits assumed, looked up): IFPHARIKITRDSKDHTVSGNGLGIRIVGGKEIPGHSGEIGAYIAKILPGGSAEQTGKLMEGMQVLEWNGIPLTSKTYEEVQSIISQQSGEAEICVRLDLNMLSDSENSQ

LRRC7, Q96NW7 = target: T5, LRRC7, Q96NW7
T5 sequence (Q96NW7 1440-1537, limits assumed, looked up): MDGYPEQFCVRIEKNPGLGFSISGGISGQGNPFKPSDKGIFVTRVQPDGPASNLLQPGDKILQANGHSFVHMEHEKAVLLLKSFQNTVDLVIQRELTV

DFNB31_1, Q9P202 = target: T6, DFNB31_1, Q9P202
T6 sequence (Q9P202 135-233, limits assumed, looked up): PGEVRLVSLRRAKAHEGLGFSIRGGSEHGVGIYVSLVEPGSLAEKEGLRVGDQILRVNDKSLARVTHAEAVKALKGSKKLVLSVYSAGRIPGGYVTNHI

GRIP1_3, Q9Y3R0 = target: T7, GRIP1_3, Q9Y3R0
T7 sequence (Q9Y3R0 247-346, limits assumed, looked up): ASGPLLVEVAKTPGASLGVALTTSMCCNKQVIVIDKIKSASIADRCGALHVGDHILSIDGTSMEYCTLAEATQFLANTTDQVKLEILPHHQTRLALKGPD

NHERF3_4, Q5T2W1 = target: T8, NHERF3_4, Q5T2W1
T8 sequence (Q5T2W1 373-468, limits assumed, looked up): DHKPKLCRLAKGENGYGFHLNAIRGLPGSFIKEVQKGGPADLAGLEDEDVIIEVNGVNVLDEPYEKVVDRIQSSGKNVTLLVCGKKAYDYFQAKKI

ARHGEF12, Q9NZN5-2 = target: ARHGEF12, Q9NZN5-2
Inadl_5, Q8NI35 = target: Inadl_5, Q8NI35
DLG4_1, P78352 = target: DLG4_1, P78352
HTRA4, P83105 = target: T9, HTRA4, P83105
T9 sequence (P83105 378-476, limits assumed, looked up): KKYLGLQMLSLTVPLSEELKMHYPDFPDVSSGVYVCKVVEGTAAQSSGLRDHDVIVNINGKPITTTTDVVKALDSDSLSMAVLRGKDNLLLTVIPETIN

MPP7, Q5T2T1 = target: T10, MPP7, Q5T2T1
T10 sequence (Q5T2T1 134-230, limits assumed, looked up): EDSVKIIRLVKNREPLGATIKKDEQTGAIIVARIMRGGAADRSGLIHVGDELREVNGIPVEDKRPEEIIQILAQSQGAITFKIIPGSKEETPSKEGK

LAP2, Q96RT1 = target: LAP2, Q96RT1
RHPN1, Q8TCX5 = target: T11, RHPN1, Q8TCX5
T11 sequence (Q8TCX5 508-602, limits assumed, looked up): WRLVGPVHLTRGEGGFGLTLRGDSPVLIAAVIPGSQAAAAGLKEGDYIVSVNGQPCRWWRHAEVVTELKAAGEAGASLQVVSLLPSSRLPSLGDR

Inadl_2, Q8NI35 = target: Inadl_2, Q8NI35
PICK1, Q9NRD5 = target: PICK1, Q9NRD5
RADIL, Q96JH8 = target: T12, RADIL, Q96JH8
T12 sequence (Q96JH8 971-1071, limits assumed, looked up): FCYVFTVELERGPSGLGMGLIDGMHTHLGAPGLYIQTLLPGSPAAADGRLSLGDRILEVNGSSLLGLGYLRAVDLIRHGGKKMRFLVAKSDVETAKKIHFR

MAST2, Q6P0Q8 = target: MAST2, Q6P0Q8
DLG1_2, Q12959 = target: DLG1_2, Q12959
[1] = plain residues with an end cap or a label only (N-terminal biotin on a linker: ahx)
[2] = plain residues with an end cap or a label only (N-terminal biotin on a linker: ttds)

Chain of MAGI1_2, Q96QZ7 (Q96QZ7 456-580): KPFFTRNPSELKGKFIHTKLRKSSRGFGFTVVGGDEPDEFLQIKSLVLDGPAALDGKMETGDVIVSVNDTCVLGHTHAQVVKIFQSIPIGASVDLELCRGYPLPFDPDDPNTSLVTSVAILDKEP
Chain of GRIP2_4, Q9C0E4 (Q9C0E4 446-548): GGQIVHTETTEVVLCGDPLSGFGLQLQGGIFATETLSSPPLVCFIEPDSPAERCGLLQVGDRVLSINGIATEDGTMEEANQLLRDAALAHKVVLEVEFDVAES
Chain of LAP2, Q96RT1 (Q96RT1 other isoform, or with tags, fused parts or gaps): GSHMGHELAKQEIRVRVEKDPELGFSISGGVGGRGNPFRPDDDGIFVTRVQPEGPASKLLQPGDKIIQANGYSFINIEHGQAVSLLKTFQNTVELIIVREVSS
Chain of PARD3_3, Q8TEW0 (Q8TEW0 582-685): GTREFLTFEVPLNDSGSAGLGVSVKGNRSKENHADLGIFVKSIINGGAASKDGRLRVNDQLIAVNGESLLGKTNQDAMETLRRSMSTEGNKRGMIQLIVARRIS
Chain of DLG1_2, Q12959 (Q12959 314-412): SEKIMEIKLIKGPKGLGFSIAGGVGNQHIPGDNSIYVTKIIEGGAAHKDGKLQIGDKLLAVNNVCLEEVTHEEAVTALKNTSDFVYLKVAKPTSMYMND
Chain of DLG4_1, P78352 (P78352 62-152): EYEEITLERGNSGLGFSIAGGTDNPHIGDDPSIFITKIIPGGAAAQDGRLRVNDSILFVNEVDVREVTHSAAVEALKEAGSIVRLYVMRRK
Chain of Inadl_5, Q8NI35 (Q8NI35 673-780): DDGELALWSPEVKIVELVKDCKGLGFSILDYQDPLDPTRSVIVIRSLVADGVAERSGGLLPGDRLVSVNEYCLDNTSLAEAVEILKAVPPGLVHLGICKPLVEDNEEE
Chain of PICK1, Q9NRD5 (Q9NRD5 17-115): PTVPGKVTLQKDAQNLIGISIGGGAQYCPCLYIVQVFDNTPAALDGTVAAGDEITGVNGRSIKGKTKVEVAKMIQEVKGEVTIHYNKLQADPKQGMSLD
Chain of Inadl_2, Q8NI35 (Q8NI35 238-335): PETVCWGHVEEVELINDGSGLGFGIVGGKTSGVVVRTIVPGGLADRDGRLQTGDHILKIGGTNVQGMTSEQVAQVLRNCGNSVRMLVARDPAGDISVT
Chain of IL16_1, Q14005 (Q14005 210-306): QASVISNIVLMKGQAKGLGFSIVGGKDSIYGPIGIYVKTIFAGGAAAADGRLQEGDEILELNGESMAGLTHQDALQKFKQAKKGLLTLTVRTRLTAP
Chain of MAST2, Q6P0Q8 (Q6P0Q8 1099-1202): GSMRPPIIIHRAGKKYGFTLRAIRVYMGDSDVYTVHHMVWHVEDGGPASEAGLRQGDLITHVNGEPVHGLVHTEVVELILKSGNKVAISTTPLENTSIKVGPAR
Chain of ARHGEF12, Q9NZN5-2 (Q9NZN5 other isoform, or with tags, fused parts or gaps): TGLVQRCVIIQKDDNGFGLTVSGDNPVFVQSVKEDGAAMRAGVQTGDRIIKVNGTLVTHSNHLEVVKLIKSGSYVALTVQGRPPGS

pKd (PDZRN3_1, Q9UPQ7; [1]): below the threshold
pKd (MAGI1_2, Q96QZ7; [1]): 4.05
pKd (IL16_1, Q14005; [1]): 3.58
pKd (GRIP2_4, Q9C0E4; [1]): below the threshold
pKd (NHERF3_1, Q5T2W1; [1]): below the threshold
pKd (LIN7A, O14910; [1]): below the threshold
pKd (PARD3_3, Q8TEW0; [1]): below the threshold
pKd (PCLO, Q9Y6V0; [1]): below the threshold
pKd (LRRC7, Q96NW7; [1]): 4.14
pKd (DFNB31_1, Q9P202; [1]): 3.93
pKd (GRIP1_3, Q9Y3R0; [1]): below the threshold
pKd (NHERF3_4, Q5T2W1; [1]): below the threshold
pKd (ARHGEF12, Q9NZN5-2; [1]): 5.02
pKd (Inadl_5, Q8NI35; [1]): below the threshold
pKd (DLG4_1, P78352; [1]): 4.38
pKd (HTRA4, P83105; [1]): 4.51
pKd (MPP7, Q5T2T1; [1]): below the threshold
pKd (LAP2, Q96RT1; [1]): 4.87
pKd (RHPN1, Q8TCX5; [1]): 5.16
pKd (Inadl_2, Q8NI35; [1]): below the threshold
pKd (PICK1, Q9NRD5; [1]): below the threshold
pKd (RADIL, Q96JH8; [1]): 4.23
pKd (MAST2, Q6P0Q8; [1]): 5.11
pKd (DLG1_2, Q12959; [1]): 5.21
B1: APC, P25054 (peptide)
chain: HSGSYLVTSV

pKd (PDZRN3_1, Q9UPQ7; [2]): below the threshold
pKd (MAGI1_2, Q96QZ7; [2]): below the threshold
pKd (IL16_1, Q14005; [2]): below the threshold
pKd (GRIP2_4, Q9C0E4; [2]): below the threshold
pKd (NHERF3_1, Q5T2W1; [2]): below the threshold
pKd (LIN7A, O14910; [2]): below the threshold
pKd (PARD3_3, Q8TEW0; [2]): below the threshold
pKd (PCLO, Q9Y6V0; [2]): below the threshold
pKd (LRRC7, Q96NW7; [2]): below the threshold
pKd (DFNB31_1, Q9P202; [2]): below the threshold
pKd (GRIP1_3, Q9Y3R0; [2]): below the threshold
pKd (NHERF3_4, Q5T2W1; [2]): below the threshold
pKd (ARHGEF12, Q9NZN5-2; [2]): 3.86
pKd (Inadl_5, Q8NI35; [2]): below the threshold
pKd (DLG4_1, P78352; [2]): below the threshold
pKd (HTRA4, P83105; [2]): below the threshold
pKd (MPP7, Q5T2T1; [2]): below the threshold
pKd (LAP2, Q96RT1; [2]): below the threshold
pKd (RHPN1, Q8TCX5; [2]): below the threshold
pKd (Inadl_2, Q8NI35; [2]): below the threshold
pKd (PICK1, Q9NRD5; [2]): below the threshold
pKd (RADIL, Q96JH8; [2]): below the threshold
pKd (MAST2, Q6P0Q8; [2]): 4.36
pKd (DLG1_2, Q12959; [2]): below the threshold
B2: DGKK, Q5KSL6 (peptide)
chain: DPLTPSRSQL

pKd (PDZRN3_1, Q9UPQ7; [1]): below the threshold
pKd (MAGI1_2, Q96QZ7; [1]): below the threshold
pKd (IL16_1, Q14005; [1]): below the threshold
pKd (GRIP2_4, Q9C0E4; [1]): below the threshold
pKd (NHERF3_1, Q5T2W1; [1]): below the threshold
pKd (LIN7A, O14910; [1]): below the threshold
pKd (PARD3_3, Q8TEW0; [1]): below the threshold
pKd (PCLO, Q9Y6V0; [1]): below the threshold
pKd (LRRC7, Q96NW7; [1]): below the threshold
pKd (DFNB31_1, Q9P202; [1]): below the threshold
pKd (GRIP1_3, Q9Y3R0; [1]): below the threshold
pKd (NHERF3_4, Q5T2W1; [1]): below the threshold
pKd (ARHGEF12, Q9NZN5-2; [1]): below the threshold
pKd (Inadl_5, Q8NI35; [1]): below the threshold
pKd (DLG4_1, P78352; [1]): below the threshold
pKd (HTRA4, P83105; [1]): below the threshold
pKd (MPP7, Q5T2T1; [1]): below the threshold
pKd (LAP2, Q96RT1; [1]): below the threshold
pKd (RHPN1, Q8TCX5; [1]): 3.98
pKd (Inadl_2, Q8NI35; [1]): below the threshold
pKd (PICK1, Q9NRD5; [1]): below the threshold
pKd (RADIL, Q96JH8; [1]): below the threshold
pKd (MAST2, Q6P0Q8; [1]): 4.5
pKd (DLG1_2, Q12959; [1]): below the threshold
B3: NHERF3, Q5T2W1 (peptide)
chain: SSSNSEDTEM

— publication PMC9482650, “Quantitative fragmentomics allow affinity mapping of interactomes” (Nature Communications, 2022)
